Measurements published in the RNAGym collection of RNA variant scans (doi:10.1021/acssynbio.7b00057).

B1: Pistol ribozyme (parent)
chain: GGGUCGUUGUUCCAUAAUCGCGUGGAUAUGGCACGCAAGUUUCUACCGGGCACCGUAAAUGUCCGACUGGAGCCGUUCGGGCGGCUAUAAACAGACCUCAGGCCCGAAGCGUGGCGGCACCUGCCGCCGGUGGUAAAAAAGAUCGGAAGAGCACACGUCU

Variants of: B1
Test: aptazyme ON/OFF ratio, guanine; higher = stronger switching; co-transcriptional cleavage with and without guanine

Variant | aptazyme ON/OFF ratio
GGGUCGGACGGAGAUAAUCGCGUGGAUAUGGCACGCAAGUUUCUACCGGGCACCGUAAAUGUCCGACUGGAGCCGUUCGGGCGGCUAUAAACAGACCUCAGGCCCGAAGCGUGGCGGCACCUGCCGCCGGUGGUAAAAAAGAUCGGAAGAGCACACGUCU [U7G U8A G9C U10G U11G C12A C13G] | 1.03
GGGUCGGACGGAAAUAAUCGCGUGGAUAUGGCACGCAAGUUUCUACCGGGCACCGUAAAUGUCCGACUGGAGCCGUUCGGGCGGCUAUAAACAGACCUCAGGCCCGAAGCGUGGCGGCACCUGCCGCCGGUGGUAAAAAAGAUCGGAAGAGCACACGUCU [U7G U8A G9C U10G U11G C12A C13A] | 1.05
GGGUCGGACGGAUAUAAUCGCGUGGAUAUGGCACGCAAGUUUCUACCGGGCACCGUAAAUGUCCGACUGGAGCCGUUCGGGCGGCUAUAAACAGACCUCAGGCCCGAAGCGUGGCGGCACCUGCCGCCGGUGGUAAAAAAGAUCGGAAGAGCACACGUCU [U7G U8A G9C U10G U11G C12A C13U] | 1.03
GGGUCGGACGCCCAUAAUCGCGUGGAUAUGGCACGCAAGUUUCUACCGGGCACCGUAAAUGUCCGACUGGAGCCGUUCGGGCGGCUAUAAACAGACCUCAGGCCCGAAGCGUGGCGGCACCUGCCGCCGGUGGUAAAAAAGAUCGGAAGAGCACACGUCU [U7G U8A G9C U10G U11C] | 1.03
GGGUCGGACGGCCAUAAUCGCGUGGAUAUGGCACGCAAGUUUCUACCGGGCACCGUAAAUGUCCGACUGGAGCCGUUCGGGCGGCUAUAAACAGACCUCAGGCCCGAAGCGUGGCGGCACCUGCCGCCGGUGGUAAAAAAGAUCGGAAGAGCACACGUCU [U7G U8A G9C U10G U11G] | 1.14
GGGUCGGACGCGAAUAAUCGCGUGGAUAUGGCACGCAAGUUUCUACCGGGCACCGUAAAUGUCCGACUGGAGCCGUUCGGGCGGCUAUAAACAGACCUCAGGCCCGAAGCGUGGCGGCACCUGCCGCCGGUGGUAAAAAAGAUCGGAAGAGCACACGUCU [U7G U8A G9C U10G U11C C12G C13A] | 1.03
GGGUCGGACGCGUAUAAUCGCGUGGAUAUGGCACGCAAGUUUCUACCGGGCACCGUAAAUGUCCGACUGGAGCCGUUCGGGCGGCUAUAAACAGACCUCAGGCCCGAAGCGUGGCGGCACCUGCCGCCGGUGGUAAAAAAGAUCGGAAGAGCACACGUCU [U7G U8A G9C U10G U11C C12G C13U] | 1.03
GGGUCGGACGCGGAUAAUCGCGUGGAUAUGGCACGCAAGUUUCUACCGGGCACCGUAAAUGUCCGACUGGAGCCGUUCGGGCGGCUAUAAACAGACCUCAGGCCCGAAGCGUGGCGGCACCUGCCGCCGGUGGUAAAAAAGAUCGGAAGAGCACACGUCU [U7G U8A G9C U10G U11C C12G C13G] | 1.03
GGGUCGGACGCUUAUAAUCGCGUGGAUAUGGCACGCAAGUUUCUACCGGGCACCGUAAAUGUCCGACUGGAGCCGUUCGGGCGGCUAUAAACAGACCUCAGGCCCGAAGCGUGGCGGCACCUGCCGCCGGUGGUAAAAAAGAUCGGAAGAGCACACGUCU [U7G U8A G9C U10G U11C C12U C13U] | 1.04
GGGUCGGACGCUGAUAAUCGCGUGGAUAUGGCACGCAAGUUUCUACCGGGCACCGUAAAUGUCCGACUGGAGCCGUUCGGGCGGCUAUAAACAGACCUCAGGCCCGAAGCGUGGCGGCACCUGCCGCCGGUGGUAAAAAAGAUCGGAAGAGCACACGUCU [U7G U8A G9C U10G U11C C12U C13G] | 1.03
GGGUCGGACGCUAAUAAUCGCGUGGAUAUGGCACGCAAGUUUCUACCGGGCACCGUAAAUGUCCGACUGGAGCCGUUCGGGCGGCUAUAAACAGACCUCAGGCCCGAAGCGUGGCGGCACCUGCCGCCGGUGGUAAAAAAGAUCGGAAGAGCACACGUCU [U7G U8A G9C U10G U11C C12U C13A] | 1.05
GGGUCGGACUACCAUAAUCGCGUGGAUAUGGCACGCAAGUUUCUACCGGGCACCGUAAAUGUCCGACUGGAGCCGUUCGGGCGGCUAUAAACAGACCUCAGGCCCGAAGCGUGGCGGCACCUGCCGCCGGUGGUAAAAAAGAUCGGAAGAGCACACGUCU [U7G U8A G9C U11A] | 1.14
GGGUCGGACGGGCAUAAUCGCGUGGAUAUGGCACGCAAGUUUCUACCGGGCACCGUAAAUGUCCGACUGGAGCCGUUCGGGCGGCUAUAAACAGACCUCAGGCCCGAAGCGUGGCGGCACCUGCCGCCGGUGGUAAAAAAGAUCGGAAGAGCACACGUCU [U7G U8A G9C U10G U11G C12G] | 1.06
GGGUCGGACGGUCAUAAUCGCGUGGAUAUGGCACGCAAGUUUCUACCGGGCACCGUAAAUGUCCGACUGGAGCCGUUCGGGCGGCUAUAAACAGACCUCAGGCCCGAAGCGUGGCGGCACCUGCCGCCGGUGGUAAAAAAGAUCGGAAGAGCACACGUCU [U7G U8A G9C U10G U11G C12U] | 1.32
GGGUCGGACGGACAUAAUCGCGUGGAUAUGGCACGCAAGUUUCUACCGGGCACCGUAAAUGUCCGACUGGAGCCGUUCGGGCGGCUAUAAACAGACCUCAGGCCCGAAGCGUGGCGGCACCUGCCGCCGGUGGUAAAAAAGAUCGGAAGAGCACACGUCU [U7G U8A G9C U10G U11G C12A] | 1.08
GGGUCGGACUAACAUAAUCGCGUGGAUAUGGCACGCAAGUUUCUACCGGGCACCGUAAAUGUCCGACUGGAGCCGUUCGGGCGGCUAUAAACAGACCUCAGGCCCGAAGCGUGGCGGCACCUGCCGCCGGUGGUAAAAAAGAUCGGAAGAGCACACGUCU [U7G U8A G9C U11A C12A] | 1.03
GGGUCGGACGGUGAUAAUCGCGUGGAUAUGGCACGCAAGUUUCUACCGGGCACCGUAAAUGUCCGACUGGAGCCGUUCGGGCGGCUAUAAACAGACCUCAGGCCCGAAGCGUGGCGGCACCUGCCGCCGGUGGUAAAAAAGAUCGGAAGAGCACACGUCU [U7G U8A G9C U10G U11G C12U C13G] | 1.03
GGGUCGGACGGUAAUAAUCGCGUGGAUAUGGCACGCAAGUUUCUACCGGGCACCGUAAAUGUCCGACUGGAGCCGUUCGGGCGGCUAUAAACAGACCUCAGGCCCGAAGCGUGGCGGCACCUGCCGCCGGUGGUAAAAAAGAUCGGAAGAGCACACGUCU [U7G U8A G9C U10G U11G C12U C13A] | 1.07
